Results as given in US20240166738A1 (Alector, published 2024).

Biological target: human TMEM106B (human, UniProt Q9NUM4 2-274)
Assay: cell-based or functional assay
Note: test concentration or dose not given here.

B1: TM-72 (antibody, V domains shown)
VH: QVQLQQPGAELVKPGTSVKLSCKASGSTFTNYWMHWVMQRPGQGLEWIGNIDPSDSDTHYNQKFKDRAKLTVDKSSSTAYMQLSGLTSEDSAVYYCARSRGGYYDYGEAMDYWGQGTSVTVSS
VL: DIVMTQAAPSVPVTPGESVSISCRSSKSLLHTNGNTYLFWFIQRPGQSPHLLIYRKSNLASGVPDRFSGSGSGTAFTLRISRVEAEDVGVYYCMQHLEYPFTFGSGTKLEIK
With B1 the “% Protection from CPE” value was 92.7%.

B2: TM-78 (antibody, V domains shown)
VH: QVQLQQPGAELVKPGASVKLSCKASGYTFTNHWMHWVRQRPGQGLEWIGNIDPSDSDTHYNHKFKDKATLIVDKSSSTAYLQLSSLTSEDSAVFYCARSRGGYYDYGEAMDYWGQGTSVTVSS
VL: DIVMTQATPSIPVTPGESVSISCRSSKSLLHVNGNTYLFWFLQRPGQSPQLLIYRMSNLASGVPDRFSGSGSGTAFTLRISRVEAEDVGVYYCMQHLEYPFTFGSGTKLEIK
In the case of B2, the “% Protection from CPE” value is reported as 91.1%.

B3: TM-10 (antibody, V domains shown)
VH: QVQLQQSGAELVKPGASVKISCKGSGYAFSSYWMNWVKQRPGKGLEWIGQIYPGDGDTNYNGKFKGKATLTADKSSTTAYIHLSSLTSEDSAVYFCARWGHYDEAMDDWGQGTSVTVSS
VL: DVVMTQTPLSLPVSLGDQASISCRSSQSLVHSNGKTYLHWYVQKPGQSPKLLIYKISNRFSGVPDRFSGSGSGTDFTLKISRVEAEDLGVYFCSQITHVPWTFGGGTKLESK
With B3 the “% Protection from CPE” value was 93.3%.

B4: TM-25 (antibody, V domains shown)
VH: EVQLVESGGDLVKPGGSLRLSCAASGFTFSGYGMSWIRQTPDKRLEWVATISSGGRYTVYPDSVKGRFTMSRDNVKNTLYLQMSSLKSEDTALYYCARDNFYSYAMDYWGLGTSVTVSA
VL: DIVMTQAAFSNPVTLGTSASISCRSSKSLLHSNGITYLFWYLQKPGQSPQLLIYQMSNLASGVPDRFSSSGSGTDFTLRISRVEAEDVGVYYCAQNLELWTFGGGTKLEIK
In the case of B4, the “% Protection from CPE” value is reported as 106%.

B5: TM-11 (antibody, V domains shown)
VH: QVQLKQSGPGQVQPSQSLSITCTVSGFSLSDYGVHWVRQSPGKGLEWLGVIWNNGNTDYNAAFISRLSINKDNSKSQVFFKMTSLQADDTAIYYCVRSLRPLHFDYWGQGTTVTVSS
VL: DIVMTQSPSSLTMSVGQKVTMHCKSSQSLLNSNNLQNYLAWYQQKPGQSPTLLVYFASIRESGVPDRFIGSGSGTDFTLTISSVQAEDLADYFCQQHYNTPFTFGSGTKLEIR
In the case of B5, the “% Protection from CPE” value is reported as 93.9%.

B6: TM-24 (antibody, V domains shown)
VH: QVQLKQSGPGQVQPSQSLSITCTVSGFSLSDYGVHWVRQSPGKGLEWLGVIWNNGNTDYNAAFISRLSINKDNSKSQVFFKMTSLQADDTAIYYCVRSLRPLHFDYWGQGTTVTVSS
VL: DIVMTQSPSSLTMSVGQKVTMNCKSSQSLLNSNNQQNYLAWYQQKPGQSPKLLVYFASIRESGVPDRFIGSGSGTDFTLTINSVQAEDLADYFCQQHYSTPFTFGSGTKLEIR
In the case of B6, the “% Protection from CPE” value is reported as 8.4%.

B7: TM-21 (antibody, V domains shown)
VH: EVQLVESGGGLVKPGGSLKLSCAASGFTFSNYAMSWVRETPEKRLEWVAFISDGGGYIYYADNVKDRFTISRDNAKNNLYLQMRHLKSEDTAMYYCARDGGTGFTYWGQGTLVTVSV
VL: DIVMTQAAFSNPVTLGTSASISCRSSKSLLHSNGITYLFWYLQKPGQSPQLLIYQMSNLASGVPDRFSSSGSGTDFTLRISRVEAEDVGVYYCVQNLELPYTFGGGTKLEIK
B7 was tested, and the “% Protection from CPE” value was 93.7%.

B8: TM-29 (antibody, V domains shown)
VH: QVQLRQSGAELVRPGASVKLSCKASGYTFTDYYINWVKQRPGQGLEWIARIYPGSGYTYYNEKFKGKATLTAEGSSNTAYMQLSSLTSEDSAVYFCANHYTNPFAYWGQGTLVTVSA
VL: DIVMTQAAFSNPVTLGTSASISCRSSKSLLHYNGITYLYWYLQKPGQSPQLLIYQMSNLASGVPDRFSSSGSGTDFTLRISRVEAEDVGVYYCAQNLELPYTFGGGTKLEIK
With B8 the “% Protection from CPE” value was 92.6%.

B9: TM-61 (antibody, V domains shown)
VH: QVQLQQSGAELAKPGASVKLSCKASGYTFTNYWMNWVKQRPGQGLEWIGYINPSSDYTKYNQNFKDKATLTADKSSSTAYMQLNSLTYEDSAVYYCTRWGGSRSYWYFDVWGAGTTVTVSS
VL: DIVMTQSPSSLSASAGEKVTMSCKSSQSLLNSGNQKNYLAWYQQKPGQSPKLLIYGASTRESGVPDRFTGSGSGTDFTLTISSVQAEDLAVYYCQNDSNYPFTFGGGTKLEMK
In the case of B9, the “% Protection from CPE” value is reported as 94.1%.

B10: TM-45 (antibody, V domains shown)
VH: QVQLQQSGAELAKPGASVKLSCKASGYTFTNYWMHWVKKRPGQGLEWIGYINPSSGYTKYNQKFKDKATLTADKSSNTAYMQLSSLTYEDSAVYYCTREGGSISDWYFDVWGTGTTVTVSS
VL: DIVMTQAAPSLPVTPGESVSISCRSSKSLLHSNGNTYLYWFLQRPGQSPQLLIYRMSNLASGVPDRFSGSGSGTAFTLRISRVEAEDVGVYYCMQHLEYPYTFGGGTKLEIK
In the case of B10, the “% Protection from CPE” value is reported as 32.6%.

B11: TM-86 (antibody, V domains shown)
VH: EVQLQQSGPVLVKPGASVKMSCKASGYTFTDYYIHWVKQSHGRSLEWIGVISPYNDNTNYNQKFKGKATLTVDKSSSTAYMELNSLTSEDSAVYYCVRTYYSNYFDYWGQGTTLTVSS
VL: DIVMTQSPSSLSVSAGEKVTMSCKSSQSLLNSGNQKNYLAWHQQRPGQPPKLLIYGASTRESGVPDRFTGSGSGTEFTLTISSVQAEDLAVYYCQNDHSYPLTFGAGTKLELK
In the case of B11, the “% Protection from CPE” value is reported as 90.5%.

B12: TM-59 (antibody, V domains shown)
VH: QVQLQQSGAELAKPGASVKLSCKASGYTFISYWMHWVKQRPGQGLEWIGYVNPSSGYTKNNQKFKDKATLTADKSSSTAYMQLSSLTYEDSAVYYCAREGGSISDWYFDVWGTGTTVTVSS
VL: DIVMTQAAPSVPVTPGESVSISCRSSKSLLHSNGNTYSYWFLQRPGQSPQLLIYRMSNLASGVPDRFSGSGSGTAFTLRISRVEAEDVGVYYCMQHLEYPYTFGGGTKLEIK
For B12, the “% Protection from CPE” value was 92.3%.

B13: TM-37 (antibody, V domains shown)
VH: QVQLQQSGAELAKPGASVKLSCKASGYTFTSYWMHWVKQRPGQGLEWIGYVNPSSGYTKNNQKFKDKVTLTADKSSSTAYMQLSSLTYEDSAVYYCAREGGSISDWYFDVWGTGTTVTVSS
VL: DIVMTQAAPSVPVTPGESVSISCRSSKSLLHSNGNTYSYWFLQRPGQSPQLLIYRMSNLASGVPDRFSGSGSGTAFTLRISRVEAEDVGVYYCMQHLEYPYTFGGGTKLEIK
In the case of B13, the “% Protection from CPE” value is reported as 90.2%.

B14: TM-35 (antibody, V domains shown)
VH: QVQLQQSGPELVRPGTSVKISCKAPGYTFTRHWMQWVRQRPGQGLEWIGEILPGSNNIYYNEKVKGKATLTVDTSSSTSYMQLSSLTSEDSAVYFCARSLYDYDGVFAYWGQGTLVTVSA
VL: DVLMTQIPLSLPVSLGDQASISCRSSQSIVHRNGNTYLEWYLQKPGQSPKLLIYKVSNRFSGVPDRFSGSGSGTDFTLKISRVEAEDLGVYYCFQGSHVPYTFGGGTKLEIK
For B14, the “% Protection from CPE” value was 90.4%.

B15: TM-32 (antibody, V domains shown)
VH: EVQLQQSGAELVRPGASVRLSCIASGFNIKDYYMYWVKQRPEQGLEWIGRIDPEDGDTEYVPKFQGKATMTADTSSNTAYLQLSSLTSEDIGVYYCTTRTWDLYYAVDNWGQGTSVTVSS
VL: DVLMTQTPLSLPVSLGDQASISCRSSQNIVHSNGNTYLEWYLQKPGQSPKLLIDKVSNRFSGVPDRFSGSGSGTDFTLKISRVEAEDLGIYYCFQGSHVPFTFGSGTKLEIK
With B15 the “% Protection from CPE” value was 105%.
